{"source": "paper PMC3812978", "about": "(The Journal of Cell Biology, 2013)", "target": "the molecule itself", "assay": "AUC"}
{"protein": "nontagged Atg38 (recombinant) (natural protein, budding yeast, UniProt Q05789 1-226, looked up) MSTLAEVYTIIEDAEQECRKGDFTNAKAKYQEAIEVLGPQNENLSQNKLSSDVTQAIDLLKQDITAKIQELELLIEKQSSEENNIGMVNNNMLIGSVILNNKSPINGISNARNWDNPAYQDTLSPINDPLLMSILNRLQFNLNNDIQLKTEGGKNSKNSEMKINLRLEQFKKELVLYEQKKFKEYGMKIDEITKENKKLANEIGRLRERWDSLVESAKQRRDKQKN", "values": [{"measurement": "stoichiometry N", "result": 2}]}
